Molecular target: recombinant human PD-L1 (rhPD-L1) ectodomain (human) (UniProt Q9NZQ7)
Test: SPR

UniProt Q9NZQ7, sequence (Q9NZQ7 19-238): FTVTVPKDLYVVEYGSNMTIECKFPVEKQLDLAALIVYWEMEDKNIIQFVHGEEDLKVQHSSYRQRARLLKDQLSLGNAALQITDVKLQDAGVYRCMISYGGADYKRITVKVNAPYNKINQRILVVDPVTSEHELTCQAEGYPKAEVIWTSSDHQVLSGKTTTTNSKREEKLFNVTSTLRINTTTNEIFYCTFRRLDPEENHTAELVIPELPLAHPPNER

| Substance | response (RU) |
| --- | --- |
| MVF-PD-1 (32–50) (from UniProt P69353 288-302) (peptide) | 11 |
| MVF-PD-1 (45–64) (from UniProt P69353 288-302) (peptide) | 110 |
| MVF-PD-1 (73–90) (from UniProt P69353 288-302) (peptide) | 110 |
| MVF-PD-1 (92–110) (from UniProt P69353 288-302) (peptide) | 110 |

Reference: paper PMC7553530
